From paper PMC5729408, “Site-specific bioalkylation of rapamycin by the RapM 16-O-methyltransferase” (Chemical Science, 2015)

Columns and labels:
hMAT2A = target: T1, hMAT2A (Homo sapiens, UniProt P31153, I322V); assay: HILIC HPLC of AdoMet analogue formation; format: biochemical; conditions: ATP 1.5 mM, substrate 1.5 mM, MgCl2 3 mM, pH 7.4, 30 °C
T1 construct: gene MAT2A; pNIC28-Bsa4-hMAT2A, His-tagged, E. coli Rosetta 2, Ni-NTA; rows are the I322V mutant

[1] = substrate: C/C1=C\[C@@H](C)C(=O)C[C@@H]([C@H](C)C[C@@H]2CC[C@@H](O)[C@H](O)C2)OC(=O)[C@@H]2CCCCN2C(=O)C(=O)[C@]2(O)O[C@@H](CC[C@H]2C)C[C@H](O)/C(C)=C/C=C/C=C/[C@@H](C)C[C@@H](C)C(=O)[C@H](O)[C@@H]1O; assay: RP-HPLC methyltransferase assay; format: biochemical, Streptomyces hygroscopicus; conditions: AdoMet 500 µM; BC231 2.5–250 µM

T1 sequence (P31153 whole entry I322V): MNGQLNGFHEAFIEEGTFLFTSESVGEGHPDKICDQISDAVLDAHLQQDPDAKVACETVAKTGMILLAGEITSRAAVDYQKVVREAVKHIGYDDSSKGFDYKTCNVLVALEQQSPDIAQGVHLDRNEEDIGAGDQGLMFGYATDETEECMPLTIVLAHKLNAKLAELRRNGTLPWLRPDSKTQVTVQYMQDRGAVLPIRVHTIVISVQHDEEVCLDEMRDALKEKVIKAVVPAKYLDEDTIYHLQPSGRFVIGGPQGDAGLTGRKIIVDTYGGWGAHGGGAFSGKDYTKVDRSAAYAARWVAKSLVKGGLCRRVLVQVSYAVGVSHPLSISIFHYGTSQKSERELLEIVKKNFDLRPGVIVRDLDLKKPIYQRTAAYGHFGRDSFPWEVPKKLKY

Molecule | HILIC HPLC of AdoMet analogue formation (hMAT2A) | Km [1] [µM] | kcat [1] [min^–1]
C=CCSCC[C@H](N)C(=O)O [S-allyl-L-homocysteine] | evaluated with L-ethionine and S-allyl-L-homocysteine (Sahc) as substrates |  | 
RapM (Streptomyces hygroscopicus) (protein, wild-type rapM in pET28a(+) (NdeI/XhoI), N-terminal His6 tag, E. coli BL21 (DE3), Ni-NTA) MIQPDVVTAFTAVRDINLDEPGTPQAETKAATFKSASSSIYDLAASMSAKGQLWNWGVHDSEFVAEIEARLPGFTEYGTDGFSEQLYYLALRDLPKGLESCDGRTVLEVGCGMGEGLNFLSRLVPTARMTGLDLAPKAIASATATLSRGDTLRFVQGDAEELPFEDSSVDVLVNIESSHTYPNLGRFLREAARALRRGGALSHIDVFTRQRLEAMRRITTEIPELKWVSDHDISDQVRAAVRRRMPPDSHLRSTLNKQRMNRLARTLALHSQITVFGGTFADYQPPASVKMLSRLGLVPPMDSLPMETYRHQIAVRV |  | 48.9 ± 7.1 | 1.47 ± 0.072
